Reference: the supplement of paper PMC10724198
± gives the standard deviation of the averaged measurements.

Experiments:
[1] = test system: Saccharomyces cerevisiae; test: protein stability index of tFT-peptide fusion (C-terminal peptide) (PSI (0-1 scale)); higher = more stable (slower turnover)
Experimental: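 MPS profiling in S. cerevisiae of the tFT-X12 degron library: putative degron peptides plus stable controls, 12 aa, fused to the C-terminus of a sfGFP-mCherry timer. Cells are FACS-sorted into 8 mCherry/sfGFP bins and deep-sequenced. PSI runs from 0 (unstable) to 1 (stable). Backgrounds are wild type, das1Δ and doa10Δ at 30 °C, and wild type, das1Δ, cdc34-1 and cdc53-1 at 37 °C; 2-3 technical replicates each.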

[2] = test system: Saccharomyces cerevisiae; test: as above; details: genetic background: wild type; temperature: 30 C
[3] = genetic background: cdc34-1, temperature: 37 C
[4] = genetic background: cdc53-1, temperature: 37 C
[5] = genetic background: das1 deletion, temperature: 30 C
[6] = genetic background: das1 deletion, temperature: 37 C
[7] = genetic background: doa10 deletion, temperature: 30 C
[8] = genetic background: wild type, temperature: 30 C
[9] = genetic background: wild type, temperature: 37 C
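Also: PSI is a weighted mean of sequencing reads over stability bins, variants kept only with over 10 reads, mCherry proximal and sfGFP distal, peptide attached via GGGS linker.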

Sequence	protein stability index [1, 3]	protein stability index [1, 4]	protein stability index [1, 5]	protein stability index [1, 6]	protein stability index [1, 7]	protein stability index [1, 8]	protein stability index [1, 9]	protein stability index [2]
LKTKKKKTNTQK	0.627 ± 0.0068	0.633 ± 0.057	0.717 ± 0.03	0.68 ± 0.038	0.67 ± 0.033	0.715 ± 0.056	0.683 ± 0.0086	0.495 ± 0.037
LLCLLLVPQPHR	0.604 ± 0.015	0.66 ± 0.011	0.5965 ± 0.0049	0.651 ± 0.017	0.574 ± 0.027	0.584 ± 0.019	0.6376 ± 0.003	0.0268 ± 0.019
LLFCFSVILFTC	0.0922 ± 0.0021	0.189 ± 0.062	0.187 ± 0.033	0.291 ± 0.018	0.0562 ± 0.022	0.0652 ± 0.018	0.0808 ± 0.0077	0.147 ± 0.018
LLMCCLPFLWVF	0.409 ± 0.033	0.432 ± 0.011	0.328 ± 0.039	0.4679 ± 0.0022	0.2085 ± 0.002	0.228 ± 0.022	0.316 ± 0.0053	0.306 ± 0.021
LLRFFPLLLFSF	0.135 ± 0.048	0.114 ± 0.01	0.213 ± 0.03	0.278 ± 0.02	0.181 ± 0.0067	0.116 ± 0.016	0.159 ± 0.013	0.122 ± 0.083
LLSPFLLMLLFL	0.4001 ± 0.0019	0.395 ± 0.0071	0.344 ± 0.007	0.432 ± 0.0046	0.221 ± 0.01	0.2 ± 0.02	0.317 ± 0.013	0.28 ± 0.004
LLTGRFRILLVV	0.0537 ± 0.0092	0.0715 ± 0.0019	0.176 ± 0.019	0.276 ± 0.004	0.0579 ± 0.017	0.0444 ± 0.0073	0.0674 ± 0.026	0.0704 ± 0.021
LLVRYRRALVLL	0.338 ± 0.0093	0.412 ± 0.018	0.425 ± 0.025	0.53 ± 0.023	0.0924 ± 0.015	0.0953 ± 0.036	0.131 ± 0.033	0.142 ± 0.051
LLVRYYLFYVLV	0.357 ± 0.018	0.442 ± 0.02	0.316 ± 0.048	0.477 ± 0.014	0.255 ± 0.0062	0.243 ± 0.024	0.391 ± 0.0082	0.351 ± 0.013
LMLISFLFLSLL	0.487 ± 0.053	0.461 ± 0.021	0.448 ± 0.023	0.529 ± 0.031	0.568 ± 0.031	0.397 ± 0.023	0.48698 ± 5.5e-05	0.466 ± 0.056
LPALPFPIPTFA	0.0567 ± 0.00074	0.0586 ± 0.0097	0.186 ± 0.027	0.201 ± 0.005	0.134 ± 0.0084	0.173 ± 0.031	0.179 ± 0.01	0.243 ± 0.053
LPLSPPPLPSSR	0.6697 ± 0.0028	0.72639 ± 0.00044	0.634 ± 0.019	0.704 ± 0.014	0.639 ± 0.022	0.663 ± 0.032	0.675 ± 0.018	0.432 ± 0.032
LPSLPPPPPPPP	0.675 ± 0.071	0.717 ± 0.018	0.673 ± 0.044	0.732 ± 0.024	0.654 ± 0.025	0.647 ± 0.016	0.687 ± 0.0092	0.498 ± 0.039
LPVSLWLVCSFF	0.524 ± 0.009	0.543 ± 0.02	0.432 ± 0.023	0.5682 ± 0.00058	0.345 ± 0.023	0.358 ± 0.03	0.5283 ± 0.0021	0.324 ± 0.0038
LQLGFCFVAQFI	0.6346 ± 0.0062	0.675 ± 0.02	0.491 ± 0.035	0.6394 ± 0.0044	0.462 ± 0.03	0.476 ± 0.024	0.607 ± 0.02	0.509 ± 0.03
LQNCRVSVLLGW	0.5443 ± 0.0023	0.616 ± 0.011	0.485 ± 0.019	0.6275 ± 0.0042	0.229 ± 0.0028	0.246 ± 0.036	0.4536 ± 0.0025	0.367 ± 0.033
LRFYLLTPPSPA	0.59 ± 0.022	0.6288 ± 0.0054	0.481 ± 0.024	0.631 ± 0.0089	0.469 ± 0.017	0.494 ± 0.02	0.586 ± 0.029	0.54 ± 0.061
LRKARLFLKAKC	0.645 ± 0.031	0.678 ± 0.041	0.497 ± 0.032	0.705 ± 0.0046	0.17 ± 0.022	0.219 ± 0.017	0.384 ± 0.0047	0.323 ± 0.03
LRLCMVFAWFLT	0.388 ± 0.011	0.508 ± 0.039	0.351 ± 0.029	0.493 ± 0.021	0.1836 ± 0.00086	0.216 ± 0.03	0.3924 ± 0.0028	0.337 ± 0.023
LRLEFRTNWFLQ	0.557 ± 0.042	0.7363 ± 0.0049	0.654 ± 0.015	0.752 ± 0.017	0.101 ± 0.016	0.132 ± 0.0047	0.402 ± 0.0072	0.2 ± 0.0067

Sequence	protein stability index [1, 3]	protein stability index [1, 4]	protein stability index [1, 5]	protein stability index [1, 6]	protein stability index [1, 7]	protein stability index [1, 8]	protein stability index [1, 9]	protein stability index [2]
LRVVLVEWMCVV	0.248 ± 0.017	0.295 ± 0.036	0.274 ± 0.037	0.418 ± 0.0054	0.172 ± 0.011	0.21 ± 0.023	0.358 ± 0.011	0.33 ± 0.03
LRVVVGLCMCVL	0.4743 ± 0.00078	0.503 ± 0.007	0.396 ± 0.024	0.516 ± 0.0088	0.385 ± 0.014	0.395 ± 0.019	0.4884 ± 0.0035	0.453 ± 0.015
LSCCIVLLIIFV	0.245 ± 0.021	0.35 ± 0.021	0.27 ± 0.026	0.39762 ± 0.00019	0.253 ± 0.0077	0.262 ± 0.029	0.341 ± 0.025	0.338 ± 0.055
LSFLLLLGCFGS	0.5966 ± 0.0035	0.6236 ± 0.0046	0.476 ± 0.019	0.59 ± 0.027	0.453 ± 0.017	0.462 ± 0.014	0.589 ± 0.018	0.466 ± 0.076
LSGVLFSLIRFY	0.587 ± 0.06	0.636 ± 0.011	0.517 ± 0.03	0.696 ± 0.008	0.274 ± 0.015	0.287 ± 0.032	0.495 ± 0.015	0.383 ± 0.036
LSLWLFRILSVR	0.4052 ± 0.0027	0.451 ± 0.017	0.335 ± 0.023	0.4987 ± 0.0027	0.342 ± 0.0045	0.341 ± 0.012	0.4906 ± 0.0043	0.4439 ± 0.0026
LSPPLRHRLTPP	0.675 ± 0.014	0.729 ± 0.022	0.687 ± 0.032	0.712 ± 0.029	0.67109 ± 0.00013	0.669 ± 0.015	0.6731 ± 0.0065	0.715 ± 0.047
LSVRLYRTVFLV	0.359 ± 0.044	0.603 ± 0.016	0.53 ± 0.02	0.6697 ± 0.0046	0.0603 ± 0.012	0.0721 ± 0.0073	0.0864 ± 0.023	0.148 ± 0.02
LSVYGFYKMPAG	0.501 ± 0.024	0.5271 ± 0.0027	0.487 ± 0.011	0.561 ± 0.018	0.521 ± 0.032	0.491 ± 0.0073	0.5368 ± 0.0015	0.502 ± 0.031
LVAGFVFIFFYR	0.356 ± 0.053	0.488 ± 0.021	0.339 ± 0.033	0.49 ± 0.018	0.298 ± 0.0043	0.319 ± 0.022	0.46 ± 0.0078	0.372 ± 0.059
LVCLTPPPSPFS	0.689 ± 0.021	0.799 ± 0.065	0.323 ± 0.04	0.5136 ± 0.0026	0.313 ± 0.009	0.332 ± 0.016	0.486 ± 0.021	0.412 ± 0.033
LVDPFAALRHVV	0.624 ± 0.026	0.768 ± 0.0078	0.709 ± 0.016	0.71 ± 0.013	0.15 ± 0.014	0.173 ± 0.024	0.3825 ± 0.0015	0.246 ± 0.0088
LVGWSWRGWFVV	0.512 ± 0.029	0.6899 ± 0.0065	0.6201 ± 0.0015	0.769 ± 0.015	0.0763 ± 0.011	0.094 ± 0.029	0.112 ± 0.012	0.139 ± 0.025
LVIFSLLFSFSH	0.22 ± 0.011	0.325 ± 0.047	0.212 ± 0.032	0.394 ± 0.018	0.194 ± 0.0075	0.232 ± 0.015	0.3837 ± 0.00069	0.32 ± 0.028
LVLVVFCPLWFW	0.483 ± 0.035	0.581 ± 0.024	0.401 ± 0.037	0.5794 ± 0.0036	0.4422 ± 0.00092	0.388 ± 0.0094	0.56 ± 0.024	0.43567 ± 0.00031
LVPLSLLLCFFV	0.515 ± 0.027	0.5647 ± 0.0036	0.411 ± 0.028	0.551 ± 0.0063	0.178 ± 0.0019	0.205 ± 0.015	0.354 ± 0.0088	0.3058 ± 0.0028
LWAPFWVSRVTA	0.481 ± 0.017	0.513 ± 0.0085	0.408 ± 0.035	0.5677 ± 0.0039	0.21 ± 0.004	0.247 ± 0.026	0.42 ± 0.0086	0.347 ± 0.012
LWGLVWGGVWGV	0.683 ± 0.039	0.722 ± 0.013	0.564 ± 0.014	0.729 ± 0.012	0.5683 ± 0.0018	0.573 ± 0.015	0.705 ± 0.0096	0.439 ± 0.015
LYRIETLFMRAQ	0.353 ± 0.029	0.41 ± 0.022	0.435 ± 0.035	0.407 ± 0.035	0.389 ± 0.059	0.358 ± 0.019	0.354 ± 0.019	0.383 ± 0.021
